The assay concerns the target fluorescein-labeled sulfopeptide. As to the kind of experiment: fluorescence polarisation.

As for SH2-E38P (domain or fragment), the fold improvement in affinity over SH2-wt is 17 fold. In turn, SH2-S37H (domain or fragment) displayed a fold improvement in affinity for sulfopeptide over phosphopeptide of 1.4 fold. Turning to SH2-S37H/E38P (domain or fragment), the fold improvement in affinity for sulfopeptide over phosphopeptide was found to be 6.6 fold. SH2-T39F (domain or fragment) registered a fold improvement in affinity over SH2-wt of over 35 fold.

Values taken from publication PMC8785239.
